Test: yeast display, Sf9 membrane polyspecificity reagent, FACS + sequencing; frameworks hold sequencing errors
How it was run: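 A synthetic nanobody library was expressed on Saccharomyces cerevisiae BJ5465 by galactose induction for 36–48 hours. The library was stained for 1 hour at 4 °C with 10% biotinylated, detergent-solubilized Sf9 membrane reagent and enriched with streptavidin microbeads before FACS. Low and high (top ~1%) gates were set on anti-HA fluorescence for expression and streptavidin fluorescence for reagent binding, and each polyreactivity label reflects the gate of origin.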

Sequence | polyreactivity (PSR sort gate)
QVQLVESGGGLVQAGGSLRLSCASSGSTFDYYMGWYRHAPGKERELVAAITYSGGSTYYADSVKGRFTISRDNAKNTVYLQMKSLKPEDTAVYYCAKDRSTFDDFYSNYYWGQGTQVTVSS | low polyreactivity
QVQLVESGGGLVQAGGSLRLSCASSGSTFLAYAMGWDRQAPGKERELVAAISSRGSRTYYADSLKGRCTISRDTAKNTVYLQMNSLKPEDTAVYYCAARYPSGYYYWGQGTQVTVSS | high polyreactivity
QVQLVESGGGLVQAGGSLRLSCASSGSTFSANTKGWYRQAPGKERELVAAINSSGGSSTYYADSVKGRFTISRDNAKNTVYLQMKSLKPEDTAVYYCAAENSVPRGVLGGEFDYWGQGTQVTVSS | low polyreactivity
QVQLVESGGGLVQAGGSLRLSCASSGSTFYGNAMGWYRQAPGKERELVATISSGGSTDYADSVKGRFTISRDNAKNTVYLQMNSLKPEDTAVYYCATDNYLGYYYKDGVLDDYWGQGTQVTVSS | low polyreactivity
QVQLVESGGGLVQAGGSLRLSCASSGSTFYGNAMGWYRQEPGKERELVASISSGGTNYADSVKGRFTISRDNAKNTVYLQMNSLKPEDTAVYYLNADYIDTFRGFDYWGQGTQVTVSS | low polyreactivity
QVQLVESGGGLVQAGGSLRLSCASSGSTIRSYAMGWYRQAPGKERELVAVISSGDSTYYADSVKGRFTISRDNAKNTVYLQMNSLKPDDTAVYYCAADSYVLGRWYGYWGQGTQVTVSS | low polyreactivity
QVQLVESGGGLVQAGGSLRLSCASSGSTYYVYGMVWYRQAPGKERELVAAISWSGGDTYYADSVKGRFTISRDNAKKTVYFQMNPLKPEDTGVYYCAAVYNYPVVCEYDYWGQGTQVTVSS | high polyreactivity
QVQLVESGGGLVQAGGSLRLSCASSRNIFYLYAMGWYRQAPGKEREFSTSYADSEKGRFTISRDNAKNTVYLQMNSLKPEDTAVYYCAAYNSRGPYYYLFDYWGQGSQVTVSS | low polyreactivity
QVQLVESGGGLVQAGGSLRLSCASYGSIFSSYFMGWYRQAPGKERELVAAISSGGRTYYADSVKGRFTISRDNAKNTVYIQMKSLKPEDTAVFYCNRVRYRQSAFDYWGQGTQVTVSS | high polyreactivity
QVQLVESGGGLVQAGGSLRLSCATSGGIFDSYAMVWYRQAPGKERELVASISWSGGSTYYADSVKGRFTISRDNEKNTVYLQMKSLKPEVTAVYYCAADRPYAGRFWKGYHSALYDYWGQGTQVTVSS | low polyreactivity
QVQLVESGGGLVQAGGSLRLSCAYSGRTFYYNTMGWYRQAPGKEREFVATISRIGGSTYYADSVKGRFTISRDNAKNTVYFQMNSLKPEDTAVYYCAKGRSLNGLPPVVYWQLFYYWGQGTLVTVSS | high polyreactivity
QVQLVESGGGLVQAGGSLRLSCDASASILRENAMGWYRQAPGKERELVAVITRGGNTYYADSVKGRFTISRDNAKNTVYLQMNSLKPEDTAVYYCAAKRRERYGQTYGYWGQGTQVTVSS | high polyreactivity
QVQLVESGGGLVQAGGSLRLSCDASGFIFRRYTMGWNRQAPGKETELVPAITSSGGTNYADSVKGRFTISRDNAKNNVFVLRNSLKPEDTAVYYCAARRLTQQGYGGGYWGQGTQVTVAS | high polyreactivity
QVQLVESGGGLVQAGGSLRLSCDASGFIFVRYAMGWYRQAPGKEREFVAAISRSGGSTYYADSVKGRFTISRDNAKNTVYLQMNSLKPEDTAVYYCARQYASPRREFEYWGQGTQVTVSS | high polyreactivity
QVQLVESGGGLVQAGGSLRLSCDASGFILYYNAMGWYRQAPGKEREMVAAITSGGGGTYYADSVKGRFTNSRDNAKNTVYFQMNSLNPEDTAVYYCNTRFGYRGGVDFDYWGQGTQVTVSS | high polyreactivity
QVQLVESGGGLVQAGGSLRLSCDASGFTFGRNAMGWYRQAPGKERELVAAISSSGGTTYYADSVKGRFTISRDNAKNTVYLQMNSLKPEDTAVYYCAAGYYYRYDYWGQGTQVTVSS | high polyreactivity
QVQLVESGGGLVQAGGSLRLSCDASGFTFPSYAMGWYRQAPGKERELVAAISYRGGRTYYADSVKGRFTISRDNAKNTVYLQMNSLKPEDTAVYYCAAAGYAWWGEYEYWGQGTQVTVSS | high polyreactivity
QVQLVESGGGLVQAGGSLRLSCDASGFTFVYYAMGCYRQAPGKERELVAAISGRGGSTYYADSVKGRFTISRDNAKNTVYLQMNSLKPEDTAVYYCATTYSWYYVPYKTHIYYYWGQGTQVTVSS | low polyreactivity
QVQLVESGGGLVQAGGSLRLSCDASGFTFYKNAMGWYRQAPGKERELVAAISSGGSTSYADSVKGRFTISRDNAKNTVYLQMNSLKPEDTAVYFCAADRFAFYGRYRGPYYYWGQGTQVTVSS | high polyreactivity
QVQLVESGGGLVQAGGSLRLSCDASGFTFYYYAMGWYRPAPGKERELVAAISSSGSSTYYADSVKGRFTISRDNAKNTVYLQMNSLKPEDTAVYYCNARRYEYLWGDYWGQGTQVTVSS | high polyreactivity
QVQLVESGGGLVQAGGSLRLSCDASGGTFYVNHMAWYRPAPWKERELVATITYSGTSTYYADSVKGRFTISRDNAKNTVYLQMNSLKPEDTAVYYCATDVLLYFEPVNLDYWGQGTQVTVSS | low polyreactivity
QVQLVESGGGLVQAGGSLRLSCDASGIIFAWYAMGWSRQAPGKERELVAAISSDGITKDADSVKGRFTISRDNAKNTVYLQMNSLKPEDTAVYYCAAGLGWGLYWIDSYEYWGQGTQVTVSS | low polyreactivity

Sequence | polyreactivity (PSR sort gate)
QVQLVESGGGLVQAGGSLRLSCDASGIIFGYYAMGWYRQAPGKERELVAGITWRGDITYADSVKGRFTISRDNAKNTVYLQMNSLKPEDTAVYYCAAESSFYRGYGYWGQGTQVTVSS | high polyreactivity
QVQLVESGGGLVQAGGSLRLSCDASGIIFTFYTMGWYRQAPGKERELVAAITWSGGSTNYADSVKGRFTISRDNAKNTVYLQMNSLKPEDTAVYYCAAQGYPQSPPWEDYWGQGTQVTVSS | low polyreactivity
QVQLVESGGGLVQAGGSLRLSCDASGITFYRYAMGWYRQAPGKERELVAAITSGDTTYYADSVKGRFTISRDNAKNTVYLQMNSLKPEDTADYYCAAVAGYRVVRTRELGYWGQGTQVTVSS | high polyreactivity
QVQLVESGGGLVQAGGSLRLSCDASGLTFRYYAMVWYRQAHGKERELDATITRAGRTNYADSVKGRFTISRDNAKNTVYFQMNRLNPEDTAVYYCNAKQSGKYPRVVGYDYWGQGTQVTVSS | high polyreactivity
QVQLVESGGGLVQAGGSLRLSCDASGRIFQPNVMGWYRQAPGKERELVAAIRSGSSTYYADSVKGRFTISRDNAKNTFYLQMNSLKPEDTAVYYCATRYRKQYKPYEYWGQGTQVTVSS | high polyreactivity
QVQLVESGGGLVQAGGSLRLSCDASGRIFRENAMGWYRQAPGKERELVAAINRSGSRTYYADSVKGRFTISRDNAKNTVYLQMNSLKPEDTAVYYCATASSIRYDYWGQGTQVTVSS | high polyreactivity
QVQLVESGGGLVQAGGSLRLSCDASGRIFSPNTMGWYRQAPGKERELVAAISRGGSTYADSVKGRFTISRDNAKITVYLQMNSLKPEDTAVYYCNARYGRYYGAYEYWGQGTQVTVSS | high polyreactivity
QVQLVESGGGLVQAGGSLRLSCDASGRILKYYDMGWYRQAPGKERELVAAISVSGTSTYYADSVKGRFTISRDNAKNTVYLQMNSLKPEDTAVYYCATATGRYSFDYWGQGTQVTVSS | low polyreactivity
QVQLVESGGGLVQAGGSLRLSCDASGRIYGYNAIAWYRQAPGKERELVAAITNGGSTNYADSVKGRFTISRDNAKNTVFLQMNSLKPDETAVYYCAVKWYAPGHDYWGQGTQVTVSS | low polyreactivity
QVQLVESGGGLVQAGGSLRLSCDASGRIYLYAMGWYRQAPGKERELVAAITTRAGRTYYADSVKGRFTISRDNAKNTVYFQMNSLKPEDNAVSYCAADGTRYPAYGYWGQGTQVTVSS | low polyreactivity
QVQLVESGGGLVQAGGSLRLSCDASGRSSVSMLMVWYRQAPGKERELVARITGSGGSTYYADSVKGRFTISRDNAKNTVYLQMNSLKPEDTAVYYCAARYLWRGRYNYWGQGTQVTVSS | high polyreactivity
QVQLVESGGGLVQAGGSLRLSCDASGRTFDVYTKGWYRQAPGKERELVDANNGGGSTYYADSVKGRFTISRDNAKNTVYLQMNSLKPEDPAVFYCAAKFRAGRSSYRGSPRYDSWGQGTHVTVSS | high polyreactivity
QVQLVESGGGLVQAGGSLRLSCDASGRTFKYYAMGWYRQAPGKERELVAVITSGGSTYYADSVKGRFTISRDNAKNTVYLQMNSLKPEDTAVYYCAKSSHAREYYYWGQGTQVTVSS | low polyreactivity
QVQLVESGGGLVQAGGSLRLSCDASGRTFLTNTMGWYRQAPGKERELVAAISSGGSTKYADSVKGRFTISRDNAKNTVYLQMNSLKPEDNAVYYCAATGWRYGYKYYYWGQGTQVTVSS | high polyreactivity
QVQLVESGGGLVQAGGSLRLSCDASGRTFPEYGMGWYRQAPGKEREFVAAISTRGGSTYYANSVKGRFTISRDNAKNTVYLQMNSLKPEDTAVYYCAAKYPGGETYPFDYWGQGTQVTVSS | low polyreactivity
QVQLVESGGGLVQAGGSLRLSCDASGRTFRYYAMGWSRQAPGKERELVAAISASGGSTFYADSVKGRFTISRDNAKNSVYLQMKSLKPEDTAVYYCAAYHYCVFPYKQYDYWGQGTQVTVSS | high polyreactivity
QVQLVESGGGLVQAGGSLRLSCDASGSIFFSYAMGWYRQAPGTEREFVAAINSDDASTYADSVKGRFTISRDNAKNTVYLQMNSLKPEDTAVYYCADSFLWSWYDYWGQGTQVTVSS | low polyreactivity
QVQLVESGGGLVQAGGSLRLSCDASGSIFGSYVMGWSRQAPGKERELVAAISSSGASTYYADSVKGRFTISRDNAKNTVYLQMNSLKPEDTAVYYCATTRRPYVRGYPHYYWGQGTQVTVSS | high polyreactivity
QVQLVESGGGLVQAGGSLRLSCDASGSIFIPYAMGWYRQAPGKERELVAAISGSGTSTNYADSVKGRFTISRDNAKNTVYLQMNSLKPEDTAVYYCAARLPYGYLRSKFYYWGQGTQVTVSS | high polyreactivity
QVQLVESGGGLVQAGGSLRLSCDASGSIFNRNVMGWYRQAHGKERELVAVITGSGDSTFYADSVKGRFTISRDNAKNTVYLQRNSLIPDDTAVYYCNARLVSGGYYYWGLGTQVTVSS | low polyreactivity
QVQLVESGGGLVQAGGSLRLSCDASGSIFPLYAMGWYRQAPGKERELVAAITSGTSTNYADSVKGRFTISRDNAKNTVYLQMNSLKPEDTAVYYCAADVYTRFWRVYRFDYWGQGTQVTVSS | low polyreactivity

From the nanobody polyreactivity screen of Harvey et al. (2022)
